Four molecules from article PMC1301591 (Nucleic Acids Research, 2005) can be followed below.

Assay [1] concerns the target T1, Recombinant His-tagged WRN protein (human, UniProt Q14191 1-1432). Put plainly: ELISA.
In assay [2] the target is Recombinant His-tagged BLM protein (human, UniProt P54132 1-1417). Put plainly: pull-down.
For assay [3], the target named is T1, Recombinant His-tagged WRN protein. Put plainly: pull-down.

T1 sequence (Q14191 whole entry): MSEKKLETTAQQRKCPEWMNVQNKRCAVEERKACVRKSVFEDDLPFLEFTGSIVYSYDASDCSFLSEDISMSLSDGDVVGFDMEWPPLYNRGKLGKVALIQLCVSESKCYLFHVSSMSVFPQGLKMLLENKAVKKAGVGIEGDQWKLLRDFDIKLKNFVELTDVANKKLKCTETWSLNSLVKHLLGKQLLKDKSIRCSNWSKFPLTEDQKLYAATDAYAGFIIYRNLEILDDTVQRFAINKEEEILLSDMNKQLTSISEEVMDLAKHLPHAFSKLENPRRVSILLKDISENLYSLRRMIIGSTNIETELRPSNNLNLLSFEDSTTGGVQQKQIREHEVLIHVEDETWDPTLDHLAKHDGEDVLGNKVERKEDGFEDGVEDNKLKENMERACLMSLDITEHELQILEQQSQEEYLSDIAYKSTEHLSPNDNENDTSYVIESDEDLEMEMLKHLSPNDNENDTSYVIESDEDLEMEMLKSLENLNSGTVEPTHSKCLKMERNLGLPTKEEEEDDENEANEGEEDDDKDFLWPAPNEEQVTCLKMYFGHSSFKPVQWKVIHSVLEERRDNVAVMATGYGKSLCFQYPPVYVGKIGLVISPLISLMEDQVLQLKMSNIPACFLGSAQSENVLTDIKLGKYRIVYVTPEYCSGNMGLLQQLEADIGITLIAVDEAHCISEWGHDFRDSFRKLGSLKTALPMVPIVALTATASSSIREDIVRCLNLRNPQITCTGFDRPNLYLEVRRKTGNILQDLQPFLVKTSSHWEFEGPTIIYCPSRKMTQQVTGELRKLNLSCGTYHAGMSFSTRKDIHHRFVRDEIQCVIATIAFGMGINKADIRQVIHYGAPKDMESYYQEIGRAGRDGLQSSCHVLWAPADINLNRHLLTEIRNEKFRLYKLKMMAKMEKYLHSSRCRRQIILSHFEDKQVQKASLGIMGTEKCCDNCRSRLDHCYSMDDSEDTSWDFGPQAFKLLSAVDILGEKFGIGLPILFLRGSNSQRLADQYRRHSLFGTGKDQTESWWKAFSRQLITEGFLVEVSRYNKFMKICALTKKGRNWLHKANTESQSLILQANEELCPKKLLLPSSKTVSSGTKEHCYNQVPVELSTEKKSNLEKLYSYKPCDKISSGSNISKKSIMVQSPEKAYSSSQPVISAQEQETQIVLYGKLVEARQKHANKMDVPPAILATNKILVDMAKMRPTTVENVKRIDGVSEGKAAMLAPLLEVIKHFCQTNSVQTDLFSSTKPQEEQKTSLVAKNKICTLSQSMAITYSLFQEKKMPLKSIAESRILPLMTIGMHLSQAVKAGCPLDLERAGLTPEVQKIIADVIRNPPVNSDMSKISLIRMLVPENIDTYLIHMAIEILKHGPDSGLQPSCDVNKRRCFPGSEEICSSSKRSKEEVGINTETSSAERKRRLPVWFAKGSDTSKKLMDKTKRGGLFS
Recombinant His-tagged BLM protein, sequence (P54132 whole entry): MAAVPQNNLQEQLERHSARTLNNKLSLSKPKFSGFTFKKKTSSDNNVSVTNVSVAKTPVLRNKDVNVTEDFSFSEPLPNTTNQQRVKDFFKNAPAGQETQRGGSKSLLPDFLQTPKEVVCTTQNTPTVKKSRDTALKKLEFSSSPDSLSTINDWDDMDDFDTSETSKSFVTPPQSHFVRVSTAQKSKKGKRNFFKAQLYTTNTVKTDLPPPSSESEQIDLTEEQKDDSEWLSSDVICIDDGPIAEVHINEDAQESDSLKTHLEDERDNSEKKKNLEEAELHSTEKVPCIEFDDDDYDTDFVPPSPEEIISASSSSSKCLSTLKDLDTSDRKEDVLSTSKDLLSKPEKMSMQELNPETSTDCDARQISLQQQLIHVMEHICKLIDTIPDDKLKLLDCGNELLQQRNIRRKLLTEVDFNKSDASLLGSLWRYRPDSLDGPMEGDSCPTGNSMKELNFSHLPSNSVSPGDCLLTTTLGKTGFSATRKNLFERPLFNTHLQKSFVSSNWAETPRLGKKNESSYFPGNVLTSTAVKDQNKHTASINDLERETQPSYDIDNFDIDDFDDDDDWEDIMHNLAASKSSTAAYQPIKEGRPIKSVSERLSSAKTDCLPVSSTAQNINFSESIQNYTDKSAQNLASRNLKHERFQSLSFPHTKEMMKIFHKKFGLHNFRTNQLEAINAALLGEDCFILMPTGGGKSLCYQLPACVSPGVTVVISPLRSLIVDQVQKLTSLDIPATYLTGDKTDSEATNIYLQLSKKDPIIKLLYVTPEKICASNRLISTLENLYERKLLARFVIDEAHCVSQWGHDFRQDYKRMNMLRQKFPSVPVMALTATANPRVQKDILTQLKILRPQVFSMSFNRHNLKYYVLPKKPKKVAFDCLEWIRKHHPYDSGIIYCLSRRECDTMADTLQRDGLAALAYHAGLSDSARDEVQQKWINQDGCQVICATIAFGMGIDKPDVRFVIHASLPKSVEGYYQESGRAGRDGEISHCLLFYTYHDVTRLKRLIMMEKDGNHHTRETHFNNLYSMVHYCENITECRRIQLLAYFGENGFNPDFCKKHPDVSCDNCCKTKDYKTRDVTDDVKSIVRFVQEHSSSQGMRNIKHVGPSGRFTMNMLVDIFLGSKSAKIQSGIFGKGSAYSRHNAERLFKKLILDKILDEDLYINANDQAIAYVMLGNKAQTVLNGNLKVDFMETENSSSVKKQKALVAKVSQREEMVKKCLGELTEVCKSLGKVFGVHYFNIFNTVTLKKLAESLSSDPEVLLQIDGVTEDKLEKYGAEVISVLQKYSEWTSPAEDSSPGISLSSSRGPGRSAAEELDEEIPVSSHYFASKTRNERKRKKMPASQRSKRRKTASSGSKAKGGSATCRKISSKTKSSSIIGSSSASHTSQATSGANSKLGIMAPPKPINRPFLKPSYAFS

B1: FEN-1ΔP (residues 337–344 are deleted) (enzyme, human, UniProt P39748 1-380, looked up)
chain: MGIQGLAKLIADVAPSAIRENDIKSYFGRKVAIDASMSIYQFLIAVRQGGDVLQNEEGETTSHLMGMFYRTIRMMENGIKPVYVFDGKPPQLKSGELAKRSERRAEAEKQLQQAQAAGAEQEVEKFTKRLVKVTKQHNDECKHLLSLMGIPYLDAPSEAEASCAALVKAGKVYAAATEDMDCLTFGSPVLMRHLTASEAKKLPIQEFHLSRILQELGLNQEQFVDLCILLGSDYCESIRGIGPKRAVDLIQKHKSIEEIVRRLDPNKYPVPENWLHKEAHQLFLEPEVLDPESVELKWSEPNEEELIKFMCGEKQFSEERIRSGVKRLSKSRQGSTKVTGSLSSAKRKEPEPKGSTKKKAKTGAAGKFKRGK
In the case of B1, the binding result in assay [1] was “binds”.

B2: GST–FEN-1 fusion protein containing human FEN-1 amino acids 254–380 (domain or fragment, UniProt P39748 254-380, looked up)
chain: KSIEEIVRRLDPNKYPVPENWLHKEAHQLFLEPEVLDPESVELKWSEPNEEELIKFMCGEKQFSEERIRSGVKRLSKSRQGSTQGRLDDFFKVTGSLSSAKRKEPEPKGSTKKKAKTGAAGKFKRGK
As for B2, the binding result in assay [2] and in assay [3] was “binds” in each case.
In the case of STKKKAKTGAAGKFKRGK (domain or fragment, UniProt P39748 363-380, looked up) [GST–FEN-1 fusion protein containing human FEN-1 amino acids 363–380], the binding result in assay [2] and in assay [3] was “binds” each time.

B3: GST–FEN-1 fusion protein containing human FEN-1 amino acids 328–380 (domain or fragment, UniProt P39748 328-380, looked up)
chain: LSKSRQGSTQGRLDDFFKVTGSLSSAKRKEPEPKGSTKKKAKTGAAGKFKRGK
Turning to B3, the binding result in assay [2] and in assay [3] was “binds” throughout.
